The record followed here is paper PMC10267116, “Structural and functional analysis of a plant nucleolar RNA chaperone-like protein”.

Data set [1] addresses T1, NURC1 1-160 (Arabidopsis thaliana, UniProt Q9LZ65 1-160).
T1 sequence: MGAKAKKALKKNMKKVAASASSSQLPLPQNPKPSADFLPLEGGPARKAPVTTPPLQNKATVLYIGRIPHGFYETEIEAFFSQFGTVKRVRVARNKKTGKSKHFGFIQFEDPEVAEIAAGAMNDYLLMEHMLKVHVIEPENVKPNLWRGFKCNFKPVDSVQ
As to the kind of experiment: MST. The note with it: MST: 10 nM labelled RNA, 20 mM Tris-HCl pH 8.0, 150 mM NaCl, 0.1 mg/ml BSA, 1 mM DTT, 0.1% Tween-20, room temperature, 5 min.

Data set [2] concerns the target T2, NURC1-FL (Arabidopsis thaliana, UniProt Q9LZ65 1-222).
T2 sequence: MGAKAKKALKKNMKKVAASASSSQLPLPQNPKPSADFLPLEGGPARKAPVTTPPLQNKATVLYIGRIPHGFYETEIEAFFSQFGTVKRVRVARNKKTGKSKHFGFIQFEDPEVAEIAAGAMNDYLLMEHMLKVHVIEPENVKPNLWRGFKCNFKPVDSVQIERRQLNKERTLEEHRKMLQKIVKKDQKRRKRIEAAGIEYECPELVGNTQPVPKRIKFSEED
Nature of the data set: MST. To be noted: MST: 10 nM labelled RNA, 20 mM Tris-HCl pH 8.0, 150 mM NaCl, 0.1 mg/ml BSA, 1 mM DTT, 0.1% Tween-20, room temperature, 5 min.

Data set [3] relates to NURC1 1-140 (Arabidopsis thaliana). Nature of the data set: MST. To be noted: MST: 10 nM labelled RNA, 20 mM Tris-HCl pH 8.0, 150 mM NaCl, 0.1 mg/ml BSA, 1 mM DTT, 0.1% Tween-20, room temperature, 5 min.
Data set [4] addresses T1, NURC1 1-160. Nature of the data set: MST; Kd only in figure/Table S5; MST: 10 nM labelled RNA, 20 mM Tris-HCl pH 8.0, 150 mM NaCl, 0.1 mg/ml BSA, 1 mM DTT, 0.1% Tween-20, room temperature, 5 min. The note with it: protein: recombinant; tags: 6xHis (pET-28a) removed with thrombin; label: Cy5-UTP incorporated (Cy5-UTP/UTP 1:15).
In data set [5] the target is T2, NURC1-FL. The data set is described as above. To be noted: protein: recombinant; tags: N-terminal 6xHis (pET-28a, NdeI/XhoI) removed with thrombin; label: Cy5-UTP incorporated (Cy5-UTP/UTP 1:15).

In the case of ITS2 FL, the Kd came out at 116 nM with NURC1 1-160 [1], 228 nM in the data set with NURC1-FL [2] and 938 nM in data set [3].

B1: ITS2 1-79 (stem I and II) (structured_RNA)
RNA: GGAUCGUCGUCCCUCACCAUCCUUUGCUGAUGCGGGACGGAAGCUGGUCUCCCGUGUGUUACCGCACGCGUUGGCCUAAUU
For B1, the binding result with NURC1 1-160 [4] and with NURC1-FL [5] was “binds” throughout.

B2: ITS2 82-162 (stem III) (structured_RNA)
RNA: GGAGCCAAGGACGCCUGGAGCGUACCGACAUGCGGUGGUGAACUUGAUCCAUUACAUUUUAUCGGUCGCUCUUGUCCGGAA
Consider B2, for which the binding result with NURC1 1-160 [4] and with NURC1-FL [5] was “binds” throughout.
